Results from the DeepSol protein solubility set.

Assay: soluble on expression in E. coli; label from the status in PepcDB or PDB records

Sequence | soluble on expression in E. coli
GLEYRFSKSKQALELTSLRLKEKSEQLEHSQRVAIVGEIGSSLAHELNQPLAAIRNYSEGGLLRLAKKRPHEDIVPVLEKIQGQVERADAIIQRLRTLIRKRSVDKTPCDIQALIADTIELLHFRMQKQNVAIVTSVEGEIRPLLADSVGVQQVLVNVINNAIDACALFQEKYHSSGYQGKIALHCDYQANQLSIRILDNGTGLQQENPTQAFVSSKAEGLGLGLAICRDVMEMHGGEFLIASTTPHGCLVELVFPYQN | not soluble
MGSDKIHHHHHHMLTCDVFFASKNKKGEEVCGDSIKVKRESEKIVVSVSDGLGSGIKASILSTLTATIASTMLMNGLPVTDVFRTILATLPICRVRKISYSNLCSVVCDFKNNTCTVVEYEFPVVMLFKGERRVFPEKQGLEIEGKKVFVWQFRSEAGTLLLLATDGLSQAGMGTDLFPLGFGVENIEKEMKHLLKNHVSPENIVRHFVKLAEKLDQEVRGDDTLVACLNFREKRILNLFVGPPEDRKKDEEYVRTFLSLPGKKIVCGGTTGQIFERVTGKKVEIDLYTLSENSPPVGYMEGIDLMTEGIVTLTQVFRYLEGQSEELGYGAKFIVKSLLEADEINFFVGRAINPAHQNPLFSHDISLKFRLVKDIAQILREKGKIVNVQYC | not soluble
MKFNKSTMEANGDTSACNGYSDKQRKDVRVWCDGCYDMVHFGHANSLRQAKALGDKVIVGIHTDEEITKHKGPPVFTEEERVKMVKGIKWVDEVVLGAPYVTTLDVLDQNNCDFCVHGDDITMTAEGVDTYHLVKSANRYKEVKRTAGVSTTD | not soluble
MGSDKIHHHHHHMLNYHHLRYFWIVAHEGNLTRAARKHNIAQSALSMQISALEEYLGQPLFERAGRRLVLTEAGHIALDFADAIFAKGDELLGTFGRLAEAHQKVLRVGALATLSRNFQVGFLRPLFADPEITVIVRSGTLDELLGSLKLYDLDIVLATGVPNRDHATPWIVHIIDTQPVGLIGQPRSDRYQQPLEVLLQREPLIVPSPESTIRTGFDALVHRLGIRPRIVAEIDDMAMMRLVAREHNGLAVIPPIVVTDELRSGMLVEYAELPELVETFCAITMPRRFPNPLLRLVLPGHTTPE | not soluble
MSEEAQPITLEAFAEAIRELPLSAVYAKVSEIRNSIAHLRRSNSELKAFIDETCESESDKRELEGYIAENEGVIATMNDRIGLLKTEIESRGERWIEEEIEANIKVDGDEVSTSQPIINGTAGDERPRAHEDATRRPEDRQTNEEEGVYL | not soluble
SLQKFNQIHSLFEHLPANYGEFSDFEQKIATLAQEMKVDLSLYEIDHLSIRVNTEDKAKSWLTTLLNYGKILSNNLVNGRAIYLIELEQPLLFMGQRVFIIELPFPKNKHYPVESWEHIEFVIPFLPNESSIEWVERVQQQFLWNQSGNLTIKVDEPKVDGEQLPNPSIAVSFADKSQNHVCIKVHPFNIKNIIKVSEG | soluble
MCGIVGANSTRNVTNILIEGLKKLEYRGYDSAGLAIIDDKNNIDICKEVGKVIELEKSVHNLANFKGDIGIAHTRWATHGKPSKNNSHPHASESFCIVHNGVIENFAELKKVLINDGYKFKSDTDTEVIAHLLQKEWRDNFSIVDNIKYIMAMLKGAYAVAIISQKFSDKIVAVRSGSPLVIGVGIDENFISSDALSLLPVTNKFSYLDEGDIAIISKDNVEVFDNNGAAKNLEVEEYNYSSSSASKDGYKHYMLKEIYEQPEAVSNTILASLADGEISLDSFDKRAKELFEKTKHICIVACGTSYNAGMTAKYWIEKYAKVPCSVEIASEIRYRDNVVVDGSLFVSISQSGETADTLESLRKSKKQNYVGSMCICNVPNSSLVRESDIAFMTKAGVEIGVASTKAFTTQLVALAIFTLVIAKLKNSLTDQQIAKYTEELKNIRALVMGALKLDTEIDQISEYFSDKEHTIFLGRGLYYPIAIEGALKLKEISYIHAEAYPSGELKHGPLALVDKNMPIVAVVPNDELLDKTLSNLQEVHARGGKLILFVDKAVKERVNFDNSIVLELDAGHDFSAPVVFTIPLQLLSYHVAIIKGTDVDQPRNLAKSVTVE | not soluble
QVVMPRPPALCQGCGHRDVYDALNKVAAEYPDARIFGDIGCYTLGALPPFRAIDSCVDMGASITMAKGASDAGVFPAIAVIGDSTFTHSGMTGLLDAVNDRANITVVISDNLTTAMTGGQDSAGTNKFEAICLGLGVEPEHVRVVVPLPKNMEEITRTIREEIEYKGVSVIIPRRECIQTLNRKLRQKKADKA | not soluble
MSLAAELFATRPDTHARERPEAVALIDRDRPVTHAALRAGVLDLAGGLAALGVCRGERVALWLPNCAHWVTMFLACARLGALTLAVNTRFRAQELGDILGRGQADWLVYWPGFKGIDFAGILAAVPPAARARLRGAIVVDGSGAQATPGPAGLAAHALAALHGPAPLPAPNAGVLCFTTSGTTSLPKFVLHDQDTLLRHGDAIARSYGYDDDSRILASAPFCGAFGFATLVGALARGVPVICEPAFDAARSVAAVRRHRVTHTYANNEALVQMFRLGERADFATARLFGFASFAPALGDLLPLARAQGVPLTGLYGSSELIALVAAQPREPADGDVSVRYEPGGALIHPEARVRARDPQDGRILADGESGEIEILAPSLMRGYLDNPQASAGALTDDGYFRTGDLGYTLGTRQFVFQTRMGDSLRLSGFLVNPAEIEQAVEALPGIRACQVVGATRDGKTVPYAFVLLDAGASPDPPGWMAACRQGMAGFKVPAGFQVLEAFPVVESANSAKIQKHKLREQAEALLAAAEGHHHHHH | not soluble
LEAPRDLEAKEVTPRTALLTWTEPPVRPAGYLLSFHTPGGQTQEILLPGGITSHQLLGLFPSTSYNARLQAMWGQSLLPPVSTSFTTGGLRI | soluble
MSLKRISIKDVALKAGVSIASVSYVLNNKIDSRIPQETIDKVKHAAEELNYRPNNIAKSLKTQRTHIIGLVVADIANPYFSQLARIIEDEANKLGYTLMIGSSDENAEKFEALINMFADRQADGLIIAPVENSEKCLLKLQKQKIPFVLIDRYLSGVEADSIQINNYDISQKVTEHLINGGYKNTLLVAYKTQLQHLLQRTQAFLNTLEKHQIQNSQVLLADKDYIDRDINTGLENMLQNAVKPDAIFFTSNKLAVSGLKKLTQLGINIPQDIAVAAFDETEAYELFPVPLTYVKQPLSAIGTTAVKMLNEKINIKNLPLQNVTLHAELHIGQSTKSKEGHHHHHH | soluble
MKRGTITIDGKGNVHIPSTPVWMSACEIADLFGAFSGKVSVQIKTIFKEGLLMETEAMRTIQSGQGFIDLYGIEMITMLSFRIATPQAKTLRRWIIDRLSGKNSSSSPLIVCYTLGKRYN | not soluble
MMKPIAVSQLSDNFFETISKEWMLVTAGNKNAFNTMTANWGGIGFLWNKPVVYVFIRPERYTFGFMEKSDYFTLSFLGEENKSIHKICGSKSGREVDKIKETGLKPMITDKGNVLFEQGRLSLECRKLYTDVLRKENFLDPSVYEQWYTTHGGLHHVYVAEITSAWIKD | not soluble
MDLPQKKKFTESERAALAKKLDDDLDQFMEEMAARKSDKKEERKPFDFDDWCKEIDQHPAFMTEMPTDGKYQDTIEALQSMKYDKEDDEDKQMNAEHHKEEGNKHFKFKKYRWATDCYSNGIKENSPDRKLNAVLYFNRAAAQKHLGNLRSAIKDCSMGRKFDPTHLKGVIRGAECLLELEYAKDALNWIESSKKIFAFTKETSDTPDLTDDEKKFIDQLETLRVKSVELSLKEERDKRKSRAEERKETESKKQLLDALKERNLNLCPRVPFDRPELMDMARLTVSLPLMHSHECVKFDDDLNLVWPILLQYPEAGQTDVLTETNELTTVGELLKEVLNSPAQWDPEHKFNFENVRFFVSDEYDEYLMEVYEWNDFKSVLSMPGYQIKQGLPVIMIMTKEKAASSLEALAEDENRYVAK | soluble
MSPQYDAIIVGGGHNGLTCGAYLARAGVKVLVVERQPMVGGAAVTGEIAPGYRSSLASYYQGLLQPKVILDLELQKYGFEVIPAAPTVFALEGGRTFTLWDDPEKFAAEIAKFSNVDGAAYAGYRAHMLKIAPHMKQLLWEVPVDPASGKIRDLKRLAGFVWRFRKVGPQFYDIYNLLTMSAWDYLSRWFTSDEVKLVLGFFAGGGGANSSLKTPGSAYMLARGIVRDGGTAAGPAGFMKGGMGAISEAIRRSGEAHGMEVRTACPVERILVENGRAVGVRLEGGEEIRSKIVIANATARTTFTKLLDPAELPEEFNRDIRNIRCESTVFRVNLALSALPEAPVFGQTNPQGSIVPQMTVAPNVAYMERAWHQAQGGEIAEAPFLIVKVPSMVDPTLAPEGHHIMNVFGGHAPYTLARGDWDSRREELWGRVLAVLKTQFPDIESRILHRQIMTPLDLERIFDLPNGHVHHGEISADQMFFRRPSPQFADYRSPVDRLYQASASVHPGGGVTGVPGHNAAKVILEDRRKWSLEHHHHHH | soluble
SLKKWLVTIAALWLAGCSSGEINKNYYQLPVVQSGTQSTASQGNRLLWVEQVAVPDYLAGNGVVYQTSDVKYVIANNTLWASPLDQQLRNTLVANLSTQLPGWVVASQPLGSAQDTLNVTVTEFNGRYDGKVIVSGEWLLNHQGQLIKRPFRLEGMQTQDGYDEMVKVLASVWSQEAASIAQEIKRLP | soluble
MTIIINMRSGVDEVKLRIAAKLIREGKLVAFPTETVYGLGADALNERAVRRIFEAKGRPADNPLILHIAKFSQVYELAREVPEEAKVLVERFWPGPLTIVLPRKDVVPDVTTGGLDTVAIRMPANEIALKLIELSGKPIAAPSANISGKPSPTSAEHVADDFYGKIECIIDGGETRIGVESTVIDLTEHPPVLLRPGGLPLEEIEKVIGKVRIHPAVFGKKVDTPKSPGMKYKHYAPNAEVIVVEGPREKVKGKITELVKELKERGKKVGVIGSESYNADEFFFLGSSVEEVAKNLFKALRYMDKAGVDVVIAEGVEERGLGLAVMNRLRKASGYKIVKA | soluble
MIGYFIITGFAAATLALSTCNLKKVRKPPPATPAKPPAPQKTLKVAPRAAPPRKKKEIFLEEHTPPSTDTDEVSTIPPAEQIRIVENHRRRIGVRPRAGNRVYKKTPSSELVKVENKKSVEKNCKVVKTESGEAEACEKKEDKRNVEKNKKKEKESKEKSKNCYEKKELKKNGSESYAYKKYNKQKNEHIEILVKKTVLRQIRF | not soluble
MKEKIPFYNEKEFHDMVKKTKKGTFSGWYIIDKDNNSVEFSGKFNRQFKLNKPVIPVNTEYVTRKEFNEYKNSNDQRLTKIETTLAAQGEQINKLTQTVEKQGEQINQLVQVVLLHGEQINKLTQTVEKQGEQIKELQIEQKAQGETLKLILQTLQKMSDRLDKMEVKMDKMEVKMDKMEVKMDKMEKRIDKLESKLEHHHHHH | not soluble
MGSDKIHHHHHHMDISIARTFLEVVKTGSFVNAAANLNISQTAVSARIRVLEEQLDRPMFVRNKAGARLTPAGEQFFRFATSLVQVWEAARTTVALPPGREAMVTIGAELSLWNPLLKHWLLWMRRECASVAIRTTIDRSERLMELVQDGSLDAAVLYGAPNRPGTLTELLFEEKLVLVRTTALSQPPGPEDLVGIDWGEDFAGSYRAAFPGGRNPVVAISYGPLALDYILEVGGSGYFRQGFVRPYLVDGRLELVPNSPEFAYPAYLVSSAKADRSMLDRIRAGLRAAASSAGV | not soluble
MMTKNAYAFVVIEESVMVFKRTKDEGLMPIFEGFVPLKEGFLKSFKERCNLEFLENLDLLFLYDKPSAHEIFSLCKELKNSIWDRKLVVALVEALEGFKDWNLSLKIEDKRSNSLGNGTKKLLTNADLGSDYKTIVIDSMKTYHQSQQEKYKRERGETLEVRPTTPPSYGGGSIRISGDKKPDFDEENF | not soluble
TRSVKSCVGKEFCRFGTQYTTRLGIRLEKTFEYIDTPHKFKMGVSGCPRSCVESGVKDFGIISVENGFQIYIGGNGGTEVEKAEFLTTVETEDEVIKLCGALMQYYRETGIYAERTAPWLRRLGFENVKEVLLD | not soluble
